The target in experiment [1] is thrombin. The experiment is described as follows: SPR (Biacore 3000), 50 nM TM irradiated with 1.77 Gy over immobilized thrombin; reference is sham-irradiated (0 Gy) TM; 3 experiments.
The target of experiment [2] is thrombin. The experiment is described as follows: SPR (Biacore 3000), 50 nM TM irradiated with 20 Gy over immobilized thrombin; reference is sham-irradiated (0 Gy) TM; 3 experiments. For orientation: In SPR one partner is held on a chip, and binding of the other changes the refractive index at the surface.
The target of experiment [3] is thrombin. In words: cell-based or functional assay.
Experiment [4] has as its target thrombin. In words: SPR (Biacore 3000), 50 nM TM irradiated with 80 Gy over immobilized thrombin; reference is sham-irradiated (0 Gy) TM; 3 experiments.

For “recombinant full length human thrombomodulin (from UniProt P07204 19-515) (receptor)”, the values for the decrease of average RU value relative to baseline (0 Gy) in the experiment with thrombin [1], with thrombin [2] and in the experiment with thrombin [4] were 13.2%, 18.9% and 21.6%, respectively. This substance had a mean reduction in protein C activation, TM exposed to 1.77 Gy without MPO with thrombin [3] of 12%. Further, the reduction in protein C activation, TM exposed to 1.77 Gy in the presence of MPO with thrombin [3] is 40%.

The values above are taken from patent US20110144024A1.
